This is an account of results in patent publication EP0659766A1.

This assay concerns the target T1, IL-1 receptors expressed on murine thymoma EL4 cells (murine) (UniProt P13504).
T1 sequence (looked up): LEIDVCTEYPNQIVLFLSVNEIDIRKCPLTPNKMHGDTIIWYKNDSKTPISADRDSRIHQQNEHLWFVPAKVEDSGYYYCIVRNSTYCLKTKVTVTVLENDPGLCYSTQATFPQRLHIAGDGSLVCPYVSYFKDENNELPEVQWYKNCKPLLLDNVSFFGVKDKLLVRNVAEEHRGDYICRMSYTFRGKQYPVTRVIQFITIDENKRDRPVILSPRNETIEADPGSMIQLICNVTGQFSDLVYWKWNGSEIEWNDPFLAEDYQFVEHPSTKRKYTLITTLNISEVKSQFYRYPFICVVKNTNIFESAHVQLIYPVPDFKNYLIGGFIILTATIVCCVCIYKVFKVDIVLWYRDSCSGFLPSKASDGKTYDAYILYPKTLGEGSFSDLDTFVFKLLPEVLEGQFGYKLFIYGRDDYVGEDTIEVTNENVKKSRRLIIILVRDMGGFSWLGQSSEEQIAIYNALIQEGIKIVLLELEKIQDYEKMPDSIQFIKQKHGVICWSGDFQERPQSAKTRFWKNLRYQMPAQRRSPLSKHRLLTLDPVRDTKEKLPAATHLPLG
Nature of the assay: binding of 70 pM human ¹²⁵I-IL-1α to 1 x 10⁶ EL4 cells, no serum.

B1: recombinant human IL-1 alpha (IL-1α) (ligand, UniProt P01583 113-271, looked up)
chain: SAPFSFLSNVKYNFMRIIKYEFILNDALNQSIIRANDQYLTAAALHNLDEAVKFDMGAYKSSKDDAKITVILRISKTQLYVTAQDEDQPVLLKEMPEIPKTITGSETNLLFFWETHGTKNYFTSVAHPNLFIATKQDYWVCLAGGPPSITDFQILENQA
Molecule B1 showed a ¹²⁵I-IL-1α bound to EL4 cells (cpm) of 4520 cpm.
